Source: patent publication US20150239980A1 (NEOTOPE BOSCIENCES, published 2015)

B1: chimeric 1749 (antibody, V domains shown)
VH: DVKLVESGGDLVKPGGSLKLSCAASGFTFSSYIMSWVRQTPEKRLEWVATISSGGSSTYYPDSVKGRFTISRDNAKNTLYLQMSSLKSEDTAMYYCTRDDDYDVKVFAYWGQGTLVTVSA
VL: DIVMSQSPSSLAVSAGEKVTMNCKSSRSLLNSRIRKNYLAWYQQKPGQSPKLLIYWASTRESGVPDRFTGSGSGTDFTLTISSVQAEDLAVYYCKQSYNLLTFGAGTKLELK
B2: h1749VH2 + h1749VL2 (antibody, human IgG1, V domains shown)
VH: EVQLVESGGGLVQPGGSLRLSCAASGFTFSSYIMSWVRQAPGKRLEWVATISSGGSSTYYPDSVKGRFTISRDNAKNSLYLQMNSLRAEDTAVYYCTRDDDYDVKVFAYWGQGTMVTVSS
VL: DIVMTQSPDSLAVSLGERATINCKSSRSLLNSRIRKNYLAWYQQKPGQPPKLLIYWASTRESGVPDRFTGSGSGTDFTLTISSLQAEDVAVYYCKQSYNLLTFGQGTKVEIK
notes: also called humanized 1749 conservative VH and VL
B3: h2120_VH3 + h2120_VL3 (antibody, human IgG1, V domains shown)
VH: QVTLKESGPVLVKPTETLTLTCTVSGFSLTSSGVSWVRQPPGKALEWIAAISSGGTTYYNSAFKSRLTISRDTSKSQVVLTMTNMDPVDTATYYCARRYGYGWYFDFWGQGTLVTVSS
VL: DIQMTQSPSSLSASVGDRVTINCKASQNIYNSLAWYQQKPGKAPKVLIFNANSLQTGIPSRFSGSGSGTDFTLTISSLQPEDFATYYCQQFYSGYTFGQGTKLEIK
B4: h1749VH1 + h1749VL1 (antibody, human IgG1, V domains shown)
VH: EVQLVESGGGLVQPGGSLRLSCAASGFTFSSYIMSWVRQAPGKGLEWVATISSGGSSTYYPDSVKGRFTISRDNAKNSLYLQMNSLRAEDTAVYYCTRDDDYDVKVFAYWGQGTMVTVSS
VL: DIVMTQSPDSLAVSLGERATINCKSSRSLLNSRIRKNYLAWYQQKPGQPPKLLIYWASTRESGVPDRFSGSGSGTDFTLTISSLQAEDVAVYYCKQSYNLLTFGQGTKVEIK
notes: also called humanized 1749 standard VH and VL
B5: h2107_VH3 + h2107_VL2 (antibody, human IgG1, V domains shown)
VH: QVTLKESGPVLVKPTETLTLTCTVSGFSLTSNGVSWVRQPPGKALEWIAAISSGGSTYYNSAFKSRLTISRNTSKSQVVLTMTNMDPVDTATYYCARHRPFYFDYWGQGTLVTVSS
VL: DIQMTQSPSSLSASVGDRVTITCKGSQNIYKSLAWFQLKPGKVPKLLIYDANSLQTGIPSRFSGSGSGTDFTLTISSLQPEDVATYYCQQYYSGYTFGGGTKVEIK
notes: also called VH3VL2

Tests used:
[1] = target: T1, recombinant hMCAM-His (human, UniProt P43121 24-559); assay: ForteBio Octet Red, hMCAM-His analyte; Expt. #2; vs rodent 1749
T1 construct: not shown: His tag
T1 chain: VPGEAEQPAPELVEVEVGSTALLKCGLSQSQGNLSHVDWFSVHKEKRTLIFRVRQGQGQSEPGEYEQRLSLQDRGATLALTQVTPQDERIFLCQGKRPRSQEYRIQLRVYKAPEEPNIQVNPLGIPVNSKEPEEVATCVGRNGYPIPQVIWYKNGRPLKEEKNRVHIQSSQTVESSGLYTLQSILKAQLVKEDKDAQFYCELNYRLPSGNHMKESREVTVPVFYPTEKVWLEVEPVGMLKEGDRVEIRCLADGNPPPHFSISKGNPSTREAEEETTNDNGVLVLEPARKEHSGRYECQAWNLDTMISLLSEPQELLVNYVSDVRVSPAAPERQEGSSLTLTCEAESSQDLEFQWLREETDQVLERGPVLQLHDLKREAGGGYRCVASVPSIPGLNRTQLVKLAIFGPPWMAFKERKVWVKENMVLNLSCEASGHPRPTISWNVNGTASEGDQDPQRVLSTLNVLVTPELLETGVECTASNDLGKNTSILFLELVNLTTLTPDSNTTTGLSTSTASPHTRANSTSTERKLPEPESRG
Protocol: (§1) The affinities were measured using the ForteBio Octet Red. Anti-human Fc sensors were used to capture the humanized antibodies, and several concentrations of hMCAMHis analyte were used to determine the affinity using a 1:1 fitting model.

[2] = target: T1, recombinant hMCAM-His; assay: ForteBio Octet Red, hMCAM-His analyte; Forte column 1; vs rodent 1749
Protocol: as §1

[3] = target: T2, human MCAM (melanoma cell adhesion molecule) expressed on transfected CHO cells (human, UniProt P43121 24-646); assay: laminin/FACS on hMCAM CHO cells, competitor laminin 411; Expt#1; vs rodent 1749
T2 construct: also called hMCAM; CD146
T2 chain: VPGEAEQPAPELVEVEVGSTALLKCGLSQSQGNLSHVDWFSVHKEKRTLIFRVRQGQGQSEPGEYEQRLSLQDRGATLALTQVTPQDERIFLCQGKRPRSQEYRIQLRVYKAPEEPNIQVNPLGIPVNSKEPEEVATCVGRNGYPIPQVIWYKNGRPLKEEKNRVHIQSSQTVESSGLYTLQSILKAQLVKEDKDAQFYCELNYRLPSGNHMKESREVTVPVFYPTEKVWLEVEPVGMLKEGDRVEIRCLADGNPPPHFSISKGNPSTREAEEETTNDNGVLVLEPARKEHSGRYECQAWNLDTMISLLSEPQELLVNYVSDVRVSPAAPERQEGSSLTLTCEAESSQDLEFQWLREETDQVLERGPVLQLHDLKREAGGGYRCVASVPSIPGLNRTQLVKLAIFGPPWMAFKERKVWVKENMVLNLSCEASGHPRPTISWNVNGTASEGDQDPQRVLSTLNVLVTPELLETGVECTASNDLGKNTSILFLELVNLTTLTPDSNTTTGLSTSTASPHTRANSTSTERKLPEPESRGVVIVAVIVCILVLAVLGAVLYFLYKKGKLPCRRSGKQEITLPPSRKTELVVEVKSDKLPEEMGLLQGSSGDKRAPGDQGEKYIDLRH
Protocol: (§2) Following incubation for 30-45 minutes, the cells were washed and anti-laminin conjugated to AF650 (NovusBio) was added to detect the bound laminin. The cells were run on a flow cytometer to measure the laminin binding signal.

[4] = target: T2, human MCAM (melanoma cell adhesion …); assay: laminin/FACS on hMCAM CHO cells, competitor laminin 411; Expt#2; vs rodent 1749
Protocol: as §2

[5] = target: T1, recombinant hMCAM-His; assay: competitive ELISA on hMCAM-His, competitor biotinylated rodent or chimeric 1749; Expt. #1; vs rodent 1749
Protocol: (§3) ELISA plates were coated with recombinant hMCAM-His, and blocked with casein buffer to prevent non-specific binding. Biotinylated rodent or chimeric antibody was added at a subsaturating concentration, in the presence or absence of 3× increasing concentrations of unlabeled competitor (humanized antibody, rodent, or chimeric). After washing to remove unbound antibody, streptavidin HRP was added to allow detection of the biotinylated antibody. The ELISA was developed with TMB substrate and the OD450 was measured. The IC50 of the unlabeled competitor was determined using the GraphPad Prism5 software.

[6] = target: T1, recombinant hMCAM-His; assay: competitive ELISA on hMCAM-His, competitor biotinylated rodent or chimeric 1749; Expt. #2; vs rodent 1749
Protocol: as §3

[7] = target: T2, human MCAM (melanoma cell adhesion …); assay: laminin/FACS blocking assay, % inhibition of laminin 411 binding to hMCAM-expressing CHO cells against antibody concentration; blocked ligand: laminin 411
Protocol: as §2

[8] = target: T1, recombinant hMCAM-His; assay: ForteBio Octet Red, hMCAM-His analyte; Expt. #1; vs rodent 1749
Protocol: as §1

[9] = target: T1, recombinant hMCAM-His; assay: summary of ForteBio and competitive ELISA on hMCAM-His; vs rodent 1749
Protocol: as §3, §1

[10] = target: T2, human MCAM (melanoma cell adhesion …); assay: summary of laminin blocking assay on hMCAM CHO cells, competitor laminin 411; vs rodent 1749
Protocol: as §2

[11] = target: T1, recombinant hMCAM-His; assay: competitive ELISA on hMCAM-His, competitor biotinylated rodent or chimeric 1749; vs rodent 1749
[12] = target: T1, recombinant hMCAM-His; assay: summary of ForteBio, hMCAM-His; vs rodent 2120
Protocol: as §1

[13] = target: T1, recombinant hMCAM-His; assay: ForteBio Octet Red, hMCAM-His analyte; Expt. #1; vs rodent 2120
Protocol: as §1

[14] = target: T1, recombinant hMCAM-His; assay: competitive ELISA on hMCAM-His, competitor biotinylated rodent or chimeric 2120; Expt. #1; vs rodent 2120
Protocol: as §3

[15] = target: T1, recombinant hMCAM-His; assay: ForteBio Octet Red, hMCAM-His analyte; Expt. #1; vs rodent 2107
Protocol: as §1

[16] = target: T1, recombinant hMCAM-His; assay: summary of ForteBio and competitive ELISA on hMCAM-His; vs rodent 2107
Protocol: as §3, §1

[17] = target: T2, human MCAM (melanoma cell adhesion …); assay: summary of laminin blocking assay on hMCAM CHO cells, competitor laminin 411; vs rodent 2107
Protocol: as §2

[18] = target: T1, recombinant hMCAM-His; assay: competitive ELISA on hMCAM-His, competitor biotinylated rodent or chimeric 2107; Expt. #1; vs rodent 2107
Protocol: as §3

Binder	fold over rodent (Forte affinity) [1] [fold]	fold over rodent (Forte affinity) [2] [fold]	fold over rodent (blocking, laminin/FACS) [3] [fold]	fold over rodent (blocking, laminin/FACS) [4] [fold]	fold over rodent (competitive ELISA) [5] [fold]	fold over rodent (competitive ELISA) [6] [fold]	IC50 (read off the curve) [7] [µg/mL]	fold over rodent (Forte affinity) [8] [fold]	fold reduction in affinity compared to the rodent [9] [fold]	fold reduction in potency compared to the rodent [10] [fold]	fold over rodent (competitive ELISA) [11] [fold]	fold reduction in affinity as measured by ForteBio [12] [fold]	fold over rodent (Forte affinity) [13] [fold]	fold over rodent (competitive ELISA) [14] [fold]	fold over rodent (Forte affinity) [15] [fold]	fold reduction in affinity compared to the rodent [16] [fold]	fold reduction in potency compared to the rodent [17] [fold]	fold over rodent (competitive ELISA) [18] [fold]
B1	0.79	0.6	1.4	1.4	0.81	0.97	~0.5											
B2	1.09	0.7	1.8	1.7	1.28	1.46	~0.4	0.73	< 2	< 2	1.1							
B3												> 5	16.1	3.47				
B4	2.41	2.5	1.4	1.4	1.26	1.35		2.5	< 2	< 2	1							
B5															2.54	< 3	< 3	1.62
